Experimental data as given in patent US20240166752A1 (HEFEI TG IMMUNOPHARMA, published 2024).

Experiments:
[1] = biological target: T1, MICA extracellular domain α3 domain Fc fusion protein (MICA α3-Fc) (human); assay: ELISA, MICAα3-Fc coated
T1 construct: also called MICA α3 domain
Protocol: The MICAα3-Fc fusion protein (amino acid sequence as set forth in SEQ ID NO: 24) was diluted to 1 μg/mL with PBS buffer and added to a 96-well plate in a volume of 100 μL/well and left overnight at 4° C. The PBS buffer solution was sucked off from the 96-well plate. The plate was washed 6 times with PBST (pH 7.2, PBS containing 0.1% Tween 20) buffer solution. 200 μL/well PBS/10% BSA was added and incubated at 37 °C for 2 hours for blocking. The blocking solution was removed. The plate was washed 6 times with PBST. The MICA antibodies to be tested were diluted to an appropriate concentration with 100 µL/well PBST/0.05% BSA, and incubated at 37 °C for 1 h. The reaction system was removed. The plate was washed 6 times with PBST. HRP (horseradish peroxidase)-labeled anti-mouse antibody secondary antibody (Boster, BA1050) was diluted with PBST/0.05% BSA at 100 μL/well and incubated for 1 h at 37° C. The plate was washed 6 times with PBST, and 80 μL/well TMB (tetramethylbenzidine) was added. After 3 min of incubation at room temperature, and 80 μL/well 4M sulfuric acid was added to terminate the reaction. The absorbance at […] was read with a microplate reader.

[2] = biological target: T2, MICB*005α3-Fc fusion protein; assay: ELISA, MICB*005α3-Fc coated
T2 construct: also called MICBα3*005 variant
Source text: (§1) The binding characteristics of the MICA antibody and the α3 domains of MICA and MICB was detected by ELISA in this example. The obtained various MICA, MICB variant extracellular region α3 domains (MICAα3*-002, 004, 005, 008, MICBα3*-005) Fc fusion proteins (MICAα3-Fc, MICBα3-Fc) and control antibody IgG were coated into a 96-well plate by the inventors. The signal strength after antibody addition was used to determine the binding characteristics of the antibody to MICA and MICB.
(§2) The fusion protein (MICA*002α3-Fc, amino acid sequence is as set forth in SEQ ID NO: 33; MICA*004α3-Fc, the amino acid sequence is as set forth in SEQ ID NO: 34; MICA*005α3-Fc, the amino acid sequence is as set forth in SEQ ID NO: 35; MICA*008α3-Fc, the amino acid sequence is as set forth in SEQ ID NO: 36; MICB*005α3-Fc, the amino acid sequence is as set forth in SEQ ID NO: 37) was diluted to 1 μg/ml with the PBS buffer and added to a 96-well plate in a volume of 100 μL/well and left overnight at 4° C. The PBS buffer solution was sucked off from the 96-well plate. The plate was washed 6 times with PBST (pH 7.2, PBS containing 0.1% Tween 20) buffer solution. 200 μL/well PBS/10% BSA was added and incubated at 37° C. for 2 hours for blocking. The blocking solution was removed. The plate was washed 6 times with PBST. […] The absorbance at […] was read with a microplate reader. […]

[3] = biological target: T3, recombinant MICA extracellular region Fc fusion protein (MICA-Fc) (human); assay: ELISA, MICA-Fc coated
T3 construct: also called human MICA
Protocol: The ELISA assay was used to detect the binding characteristics of the MICA antibody obtained in Example 1. The MICA extracellular region Fc fusion protein (MICA-Fc) as described above was coated into a 96-well plate. The signal strength after antibody addition was used to determine the binding characteristics of the antibody to MICA.
The MICA-Fc fusion protein (amino acid sequence as set forth in SEQ ID NO: 23) was diluted to 1 μg/mL with PBS buffer and added to a 96-well plate in a volume of 100 μL/well and left overnight at 4° C. The PBS buffer solution was sucked off from the 96-well plate. The plate was washed 6 times with PBST (pH 7.2, PBS containing 0.1% Tween 20) buffer solution. 200 μL/well PBS/10% BSA was added and incubated at 37 °C for 2 hours for blocking. The blocking solution was removed. The plate was washed 6 times with PBST. The MICA antibody to be tested was diluted to an appropriate concentration with 100 μL/well PBST/0.05% BSA, and incubated for 1 h at 37° C. The reaction system was removed. The plate was washed 6 times with PBST. HRP (horseradish peroxidase)-labeled anti-mouse antibody secondary antibody (Boster, BA1050) was diluted with PBST/0.05% BSA at 100 μL/well and incubated for 1 h at 37° C. After the incubation, the plate was washed 6 times with PBST, and 80 μL/well TMB (tetramethylbenzidine) was added. […] The absorbance at […] was read with a microplate reader.

[4] = biological target: T4, MICA*004α3-Fc fusion protein; assay: ELISA, MICA*004α3-Fc coated
T4 construct: also called MICAα3*004 variant
Source text: as §1, §2

[5] = biological target: T5, MICA*008α3-Fc fusion protein; assay: ELISA, MICA*008α3-Fc coated
T5 construct: also called MICAα3*008 variant
Source text: as §1, §2

[6] = biological target: T6, MICA expressed on CHO-K1-MICA cells (human, UniProt Q29983 24-383); assay: Western blot of CHO-K1-MICA lysate
T6 construct: Full-length entry as expressed from the lentiviral vector
T6 sequence: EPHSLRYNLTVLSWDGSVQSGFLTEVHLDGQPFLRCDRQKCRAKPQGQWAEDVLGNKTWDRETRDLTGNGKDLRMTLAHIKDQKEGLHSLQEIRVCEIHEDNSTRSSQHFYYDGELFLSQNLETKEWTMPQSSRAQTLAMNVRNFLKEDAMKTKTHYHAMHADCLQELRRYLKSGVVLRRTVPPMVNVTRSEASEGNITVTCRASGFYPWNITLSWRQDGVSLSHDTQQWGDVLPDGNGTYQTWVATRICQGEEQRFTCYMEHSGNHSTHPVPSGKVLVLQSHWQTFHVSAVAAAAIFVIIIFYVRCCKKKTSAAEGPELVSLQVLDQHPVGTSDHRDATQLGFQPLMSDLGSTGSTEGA
Protocol: The Western blot assay was used to determine the antigenic epitope characteristics of the MICA antibody.
CHO-K1-MICA, CHO-K1 cells constructed in Example 4 were washed twice with PBS. The RIPA lysate was then added for lysis for 15 min on ice. After 5 min of centrifugation at 15,000 g at 4° C., the supernatant was collected. The lysate supernatant was subjected to protein quantification using a BCA kit. Sample was then prepared with SDS-PAGE loading buffer and the sample addition amount is 50 μg/well. After electrophoresis, the sample was transferred to a nitrocellulose membrane and blocked with 5% nonfat dried milk at room temperature for 1 h. MICA antibody diluted at 1:2000 (w/v) was then added and incubated overnight at 4° C. The membrane was washed 5 min×6 times with 1%% PBST, then HRP-goat anti-mouse IgG diluted at 1:5000 (v/v) was added and incubated at room temperature for 1 h. The membrane was washed 5 min×6 times with 1%% PBST. Chemiluminescence was detected using ECL substrate development. The results are shown in FIG. 8, further showing that the antibody of the present disclosure can bind to a linear epitope of MICA protein.

[7] = biological target: T7, MICA*002α3-Fc fusion protein; assay: ELISA, MICA*002α3-Fc coated
T7 construct: also called MICAα3*002 variant
Source text: as §1, §2

T4 sequence (chain, as listed by the source limits assumed): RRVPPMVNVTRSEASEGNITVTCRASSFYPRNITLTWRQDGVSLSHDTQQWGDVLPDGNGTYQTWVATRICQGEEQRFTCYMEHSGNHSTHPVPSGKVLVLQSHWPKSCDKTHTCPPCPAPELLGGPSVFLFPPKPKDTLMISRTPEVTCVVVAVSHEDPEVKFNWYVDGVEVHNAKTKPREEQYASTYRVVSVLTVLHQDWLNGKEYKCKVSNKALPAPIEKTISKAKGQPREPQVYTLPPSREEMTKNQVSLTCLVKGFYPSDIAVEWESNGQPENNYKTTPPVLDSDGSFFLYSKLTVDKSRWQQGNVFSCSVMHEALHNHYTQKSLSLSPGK
T7 sequence (chain, as listed by the source limits assumed): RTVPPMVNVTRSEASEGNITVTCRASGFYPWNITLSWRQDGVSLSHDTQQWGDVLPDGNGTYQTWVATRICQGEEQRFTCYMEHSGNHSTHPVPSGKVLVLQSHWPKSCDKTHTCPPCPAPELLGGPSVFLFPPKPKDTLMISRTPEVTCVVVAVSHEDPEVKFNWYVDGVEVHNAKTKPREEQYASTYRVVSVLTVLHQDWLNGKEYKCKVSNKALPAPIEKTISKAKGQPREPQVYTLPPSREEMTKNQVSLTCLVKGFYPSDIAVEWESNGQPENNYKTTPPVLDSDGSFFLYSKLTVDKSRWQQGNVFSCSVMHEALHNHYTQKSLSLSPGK
T5 sequence (chain, as listed by the source limits assumed): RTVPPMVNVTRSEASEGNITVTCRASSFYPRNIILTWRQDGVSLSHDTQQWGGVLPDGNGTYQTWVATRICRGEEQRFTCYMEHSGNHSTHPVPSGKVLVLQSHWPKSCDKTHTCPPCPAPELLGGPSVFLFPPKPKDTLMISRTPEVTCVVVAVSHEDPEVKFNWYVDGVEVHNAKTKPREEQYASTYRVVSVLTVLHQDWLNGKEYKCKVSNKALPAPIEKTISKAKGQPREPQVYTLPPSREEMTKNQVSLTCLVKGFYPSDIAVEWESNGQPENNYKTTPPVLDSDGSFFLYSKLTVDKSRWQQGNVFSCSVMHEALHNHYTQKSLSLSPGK
T1 sequence (chain, as listed by the source limits assumed): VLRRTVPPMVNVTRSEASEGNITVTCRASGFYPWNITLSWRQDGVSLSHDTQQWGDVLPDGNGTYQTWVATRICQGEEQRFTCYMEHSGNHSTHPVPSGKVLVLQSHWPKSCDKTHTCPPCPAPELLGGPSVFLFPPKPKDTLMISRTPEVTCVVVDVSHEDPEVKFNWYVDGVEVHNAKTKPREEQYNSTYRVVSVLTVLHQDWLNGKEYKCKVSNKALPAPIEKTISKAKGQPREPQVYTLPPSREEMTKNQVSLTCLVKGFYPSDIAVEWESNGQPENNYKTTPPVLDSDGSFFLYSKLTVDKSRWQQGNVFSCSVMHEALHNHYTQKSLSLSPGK
T2 sequence (chain, as listed by the source limits assumed): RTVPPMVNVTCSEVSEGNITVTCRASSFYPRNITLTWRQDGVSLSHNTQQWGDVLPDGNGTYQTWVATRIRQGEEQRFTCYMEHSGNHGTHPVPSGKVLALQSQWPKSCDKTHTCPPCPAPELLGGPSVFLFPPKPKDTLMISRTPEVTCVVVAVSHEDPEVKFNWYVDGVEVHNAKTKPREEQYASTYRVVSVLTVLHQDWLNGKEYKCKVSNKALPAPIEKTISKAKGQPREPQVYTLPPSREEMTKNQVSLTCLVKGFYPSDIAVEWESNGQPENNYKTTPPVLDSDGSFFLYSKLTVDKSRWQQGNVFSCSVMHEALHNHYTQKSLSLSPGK

binding result [1]: binds
binding result [2]: binds
binding result [3]: binds
binding result [4]: binds
binding result [5]: binds
binding result [6]: binds
binding result [7]: binds
B1: MICA antibody 5A1 (murine monoclonal antibody against human MICA) (antibody, V domains shown)
VH: QVQLKQSGPGLVQPSQSLSITCIVSGFSLTTYGVHWVRQSPGKGLEWLGMIWTDGTTDYNAAFISRLSINKDNSKSQVFLKMNSLQADDTGIYYCVRKGHGYYYAMDYWGQGTSVTVSS
VL: QILLTQSPAILSASLGERVTMTCTASSSVSSSYLHWYQQKPGSSPKLWIYSTSNLASGVPARFSGGGSGTSYSLTVSNMEAEDAATYYCHQYHRSPFTFGSGTKLEIK
notes: Murine monoclonal antibody from a hybridoma; also called No. 5A1; the antibody of the present disclosure
